US20260028402A1 (SANYOU BIOPHARMACEUTICALS, published 2026)

What was measured:
human PD-L1 on cells = molecular target: T1, human PD-L1 on cells (human, UniProt Q9NZQ7 19-290); assay: flow cytometry on HCC827 cells
T1 construct: whole, on cells; Overexpressed on CHO cells or present on HCC827 tumor cells; the cell is named under assay; also called human PD-L1-CHO cells; PD-L1 protein on HCC827 cells
Method: The cells were resuspended in the prepared FACS buffer and counted, and the cell suspension density was adjusted to 2×10⁶ cells/mL. 100 μL of HCC827 cells were added per well to 96-well plates. The plates were centrifuged at 300 g to remove the supernatant. […] The incubated cell mixture was centrifuged at 300 g to remove the supernatant, 200 μL of FACS buffer was added to corresponding wells, and the cells were resuspended with a multichannel pipette. The centrifugation, resuspension and washing steps were repeated twice, and the cells were centrifuged at 300 g to remove the supernatant. […] The incubated cell mixture was centrifuged at 300 g to remove the supernatant, 200 μL of FACS buffer was added to corresponding wells, and the cells were resuspended with a multichannel pipette. The centrifugation, resuspension and washing steps were repeated twice, and the cells were centrifuged at 300 g to remove the supernatant. The PE-labeled anti-biotin flow antibody (Abcam) was added, and the cells were pipetted to mix with a multichannel pipette and incubated at 4° C. for 30 minutes. The cells were centrifuged at 300 g to remove the supernatant, and FACS buffer was added to resuspend the cells. The centrifugation, resuspension and washing steps were repeated twice, and 200 μL of FACS buffer was added per well to resuspend the cells.

mouse PD-L1 on cells = molecular target: T2, mouse PD-L1 on cells (mouse, UniProt Q9EP73 19-290); assay: flow cytometry on mouse PD-L1-CHO cells
T2 construct: whole, on cells; also called mouse PD-L1-CHO cells
Method: The cells were resuspended with the prepared FACS buffer and counted, and the cell suspension density was adjusted to 2×10⁶ cells/mL. 100 μL of mouse PD-L1-CHO cells and cynomolgus monkey PD-L1-CHO cells were added per well to the 96-well plates, respectively. The plates were centrifuged at 300 g to remove the supernatant. […] The incubated cell mixture was centrifuged at 300 g to remove the supernatant, 200 μL of FACS buffer was added to corresponding wells, and the cells were resuspended with a multichannel pipette. The centrifugation, resuspension and washing steps were repeated twice, and the cells were centrifuged at 300 g to remove the supernatant. The PE-labeled anti-human IgG Fc flow antibody (Abcam, ab98596) was added, and the cells were pipetted to mix with a multichannel pipette and incubated at 4° C. for 30 minutes. The cells were centrifuged at 300 g to remove the supernatant, and FACS buffer was added to resuspend the cells. The centrifugation, resuspension and washing steps were repeated twice, and 200 μL of FACS buffer was added per well to resuspend the cells.

[1] = molecular target: T3, B7-H4 protein (Sino Biological, 10738-H08H) (UniProt Q7Z7D3 25-258); assay: ELISA, protein coated at 2 ug/mL; legend: N/A: No binding activity detected
T3 construct: Bought protein
T3 sequence (looked up): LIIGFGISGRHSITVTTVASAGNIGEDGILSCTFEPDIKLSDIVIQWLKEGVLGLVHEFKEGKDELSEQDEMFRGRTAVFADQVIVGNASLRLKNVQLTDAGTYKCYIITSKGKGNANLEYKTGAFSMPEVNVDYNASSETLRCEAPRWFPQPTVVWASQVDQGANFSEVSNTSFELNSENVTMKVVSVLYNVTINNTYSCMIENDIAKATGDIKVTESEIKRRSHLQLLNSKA
Method: (§1) The specific procedures were as follows:
(§2) One day before the experiment, 30 μL of protein dilutions with a final concentration of 2 μg/mL (B7-H1 (i.e., PD-L1), B7-H2, B7-H3, B7-H4, and B7-DC (all proteins were purchased from Sino Biological Inc., catalog numbers 10084-HNAH, 11559-H08H, 11188-H08H, 10738-H08H, and 10292-H08H-B, respectively)) were added to the ELISA plates and the plates were incubated overnight at 4° C. The next day, the ELISA plate was rinsed three times with PBST, then blocked with 150 μL of PBS containing 5% skim milk powder at room temperature for 2 hours. […] The plates were washed three times with PBST, and 30 μL of 1:7000 diluted anti-human IgG Fc-HRP secondary antibody was added per well, followed by incubation at room temperature for 30 minutes. After washing the plate six times with PBST, TMB was added for color development, and the reaction was terminated by adding 2M HCl. The absorbance was read at a wavelength of 450 nm using a microplate reader (Molecular Devices, SpecterMax 190).

[2] = molecular target: T4, B7-H2 protein (Sino Biological, 11559-H08H) (UniProt O75144 19-258); assay: as above
T4 construct: Bought protein
T4 sequence (looked up): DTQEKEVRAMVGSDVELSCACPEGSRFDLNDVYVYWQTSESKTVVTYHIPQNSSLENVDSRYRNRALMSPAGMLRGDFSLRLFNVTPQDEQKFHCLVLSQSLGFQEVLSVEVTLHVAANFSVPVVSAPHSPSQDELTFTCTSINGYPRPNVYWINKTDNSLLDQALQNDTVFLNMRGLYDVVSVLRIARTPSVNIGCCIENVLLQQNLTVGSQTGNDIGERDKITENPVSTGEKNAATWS
Method: as §1, §2

[3] = molecular target: T5, B7-DC protein (Sino Biological, 10292-H08H-B) (UniProt Q9BQ51 20-220); assay: as above
T5 construct: Bought protein
T5 sequence (looked up): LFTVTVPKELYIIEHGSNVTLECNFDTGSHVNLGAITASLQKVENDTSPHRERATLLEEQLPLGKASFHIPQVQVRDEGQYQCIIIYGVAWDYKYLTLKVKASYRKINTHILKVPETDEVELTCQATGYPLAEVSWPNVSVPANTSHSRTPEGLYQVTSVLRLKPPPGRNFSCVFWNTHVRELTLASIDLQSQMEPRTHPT
Method: as §1, §2

[4] = molecular target: T6, B7-H3 protein (Sino Biological, 11188-H08H) (UniProt Q5ZPR3 29-461); assay: as above
T6 construct: Bought protein
T6 sequence (looked up): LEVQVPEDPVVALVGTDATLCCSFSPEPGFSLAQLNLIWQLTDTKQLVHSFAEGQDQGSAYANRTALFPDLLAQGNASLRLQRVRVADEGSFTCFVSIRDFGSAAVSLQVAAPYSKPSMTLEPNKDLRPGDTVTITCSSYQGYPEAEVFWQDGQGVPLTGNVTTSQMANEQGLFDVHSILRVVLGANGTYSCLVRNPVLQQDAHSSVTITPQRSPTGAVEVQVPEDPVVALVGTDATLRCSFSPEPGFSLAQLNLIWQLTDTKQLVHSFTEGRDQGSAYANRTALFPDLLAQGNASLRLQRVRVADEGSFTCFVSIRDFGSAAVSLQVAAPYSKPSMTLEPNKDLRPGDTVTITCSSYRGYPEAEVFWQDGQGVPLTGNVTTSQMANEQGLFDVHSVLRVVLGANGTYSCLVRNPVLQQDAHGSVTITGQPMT
Method: as §1, §2

T2 sequence (Q9EP73 19-290): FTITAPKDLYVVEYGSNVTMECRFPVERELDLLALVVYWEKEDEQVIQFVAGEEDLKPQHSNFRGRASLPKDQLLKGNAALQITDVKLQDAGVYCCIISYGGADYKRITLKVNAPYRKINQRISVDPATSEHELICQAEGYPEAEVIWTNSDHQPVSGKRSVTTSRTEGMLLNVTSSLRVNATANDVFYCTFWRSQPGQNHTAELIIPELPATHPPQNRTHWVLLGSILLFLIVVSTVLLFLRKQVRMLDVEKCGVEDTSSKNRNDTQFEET
T1 sequence (Q9NZQ7 19-290): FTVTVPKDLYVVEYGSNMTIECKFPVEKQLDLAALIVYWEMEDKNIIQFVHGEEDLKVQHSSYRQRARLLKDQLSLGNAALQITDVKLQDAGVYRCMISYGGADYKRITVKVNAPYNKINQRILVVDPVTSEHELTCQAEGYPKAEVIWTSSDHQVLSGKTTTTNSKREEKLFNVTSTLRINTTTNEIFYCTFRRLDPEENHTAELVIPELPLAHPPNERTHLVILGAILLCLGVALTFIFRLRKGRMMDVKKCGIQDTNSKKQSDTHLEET

binding result (human PD-L1 on cells): binds
binding result (mouse PD-L1 on cells): binds
binding result [1]: no binding
binding result [2]: no binding
binding result [3]: no binding
binding result [4]: no binding
B1: m18 (antibody, human IgG1, V domains shown)
VH: EVQLVESGGGLVQPGGSLRLSCAASRTDSNIHGMHWYRQAPGKGREWVGMIFIDGNTIVTDSVKGRFTISRDNAKNTLYLQMNTLRAEDTAVYYCAADSRGYGRAWGQGTTVTVSS
notes: also called antibody m18; anti-PD-L1 antibody m18
